Experimental data reported in the RNAGym collection of RNA variant scans (doi:10.7554/elife.80360).

B1: Hammerhead Ribozyme (parent)
chain: ACCGGAUGUGCUUUCCGGUCUGAUGAGUCCGUGAGGACGAAACAG

Variants of: B1
Test: self-cleavage, relative activity (ratio to wild type); higher = more cleavage; co-transcriptional

Variant | self-cleavage
CCCGGAUGUGUUUUCCGGUCUGAUGAGUCCGUGAGGACGAAACAG [A1C C11U] | 0.411
ACCAGAUGUGCUUUCCCGUCUGAUGAGUCCGUGAGGACGAAACAG [G4A G17C] | 0.399
ACCGGAUGUGCUUUCCGGUCUGAUGAGUCCAUGUGGACGAAACAG [G31A A34U] | 0.954
CCCGGAUGUGCUUUCCGGUCUGAUGAGUCCGUGAGCACGAAACAG [A1C G36C] | 0.365
ACCGGAAGUGCUUUCCGGUCUGAUGAGUCCGUGAGGACGAGACAG [U7A A41G] | 0.368
ACCGGAUGCGCUUUCCGGUCUGAUGAGUCCGUGAGGACGAAACAG [U9C] | 1.02
ACCGGAUGUGCUUGCCGGUCUGAUGAGUCUGUGAGGACGAAACAG [U14G C30U] | 0.552
ACCGGAUGUGCUUUCCGGUCUGAUGAGUCCGUGGGGACAAAACAG [A34G G39A] | 0.288
ACCGGAUGUGCUUUCCGGUCUGAUGAGUCCGUGAGGAUGAAGCAG [C38U A42G] | 0.34
AACGGAUGUGCUUUCCGGUCUGAGGAGUCCGUGAGGACGAAACAG [C2A U24G] | 0.644
ACCGGAUGUGCCUUCCGGUCUGAUGAGUCCGUGAGGACUAAACAG [U12C G39U] | 0.317
AGCGGAUGUGCUUUCCGGUCUGAUGAGUCCGUGAGGCCGAAACAG [C2G A37C] | 0.311
CCCAGAUGUGCUUUCCGGUCUGAUGAGUCCGUGAGGACGAAACAG [A1C G4A] | 0.406
ACCGGGUGUACUUUCCGGUCUGAUGAGUCCGUGAGGACGAAACAG [A6G G10A] | 0.989
ACCGGGUGUUCUUUCCGGUCUGAUGAGUCCGUGAGGACGAAACAG [A6G G10U] | 1.1
ACCGGAUGUGCUUUCCGGUCUGAUUAGUCCUUGAGGACGAAACAG [G25U G31U] | 0.419
ACCGGAUGUGCUUUCCGGUCUGUUGAGUCCAUGAGGACGAAACAG [A23U G31A] | 0.631
ACCGGCUGUGCUUUCCGGUCUGUUGAGUCCGUGAGGACGAAACAG [A6C A23U] | 0.271
ACCGGAUGUGCUUUCCGGUCUGAUGUGUCAGUGAGGACGAAACAG [A26U C30A] | 0.507

Variant | self-cleavage
ACCGGAUGUGGUUACCGGUCUGAUGAGUCCGUGAGGACGAAACAG [C11G U14A] | 1.25
ACCGGAUGUGCUUUCCGGUCUGAUCAGUCCGUGAGGACGAAACAC [G25C G45C] | 0.378
ACCGGAUGUGCUUUGCGGUCUGAUGAGUCCAUGAGGACGAAACAG [C15G G31A] | 1.01
ACCGGAUGUGCUUUCCGGUCUGUUGAGUCCGUGAGGAAGAAACAG [A23U C38A] | 0.381
ACGGGAUGUGCUUUCCGGUCUGCUGAGUCCGUGAGGACGAAACAG [C3G A23C] | 0.328
ACCGGAUAUGCUUUCCGUUCUGAUGAGUCCGUGAGGACGAAACAG [G8A G18U] | 0.635
ACCGGAUGUCCUCUCCGGUCUGAUGAGUCCGUGAGGACGAAACAG [G10C U13C] | 1.03
ACCGGAUGUGCUUUCCGGUCUGAUGAGUCCAUGAGGACGAAAUAG [G31A C43U] | 0.499
ACCGGAUGUGCUUUCCGGUCUGAUGAGUCCGUGAGGAGGAAUCAG [C38G A42U] | 0.354
ACCGGAUGUGCUUGCCGGUCUGACGAGUCCGUGAGGACGAAACAG [U14G U24C] | 0.611
ACCGGAUGUGCUUUCCGGUCUGAUGAGUCCGUGAGUAGGAAACAG [G36U C38G] | 0.331
AACGGAUGUGCUUUCCGGUCUGAUGAGACCGUGAGGACGAAACAG [C2A U28A] | 0.394
ACCGGAUGUGCUUUCCGGUCUCAUGAGUCCGCGAGGACGAAACAG [G22C U32C] | 0.335
ACCCGAUGUGCUUUCCGGUCUGAUGAAUCCGUGAGGACGAAACAG [G4C G27A] | 0.476
ACCGGAUGUGCUUUCCGGUAUGAUGAGUCCGUGAGGACGAAAUAG [C20A C43U] | 0.342
ACGGGAUGUGCUUUCCGGUCUGAUGAGUUCGUGAGGACGAAACAG [C3G C29U] | 0.418
ACCGGAUGUGCUUUCCGGUCUGAUGAGUCCGUCAGGACGUAACAG [G33C A40U] | 0.409
ACCGGAUGUGCUUUCCGGUAAGAUGAGUCCGUGAGGACGAAACAG [C20A U21A] | 0.228
ACCGGAUGGGCUUUCCGGUCUGAUGAGUCCGUGAGGACGAAAGAG [U9G C43G] | 0.455

Variant | self-cleavage
ACCGGAUGUGUUUUCCGGUCUGAUGAGUCCGUGAGGACGAACCAG [C11U A42C] | 0.388
ACCGGAUGUGCUAUACGGUCUGAUGAGUCCGUGAGGACGAAACAG [U13A C15A] | 0.926
ACUGGAUGUGCUUUCCGGUCUGAUCAGUCCGUGAGGACGAAACAG [C3U G25C] | 0.315
ACCGGAUGUGCGUUCCGGUCUGAUGAGUCCGUGAGGUCGAAACAG [U12G A37U] | 0.438
ACCGGAUGUGCUGUCCGGUCUGAUGAGUCCGUGAGGACGAAAUAG [U13G C43U] | 0.596
ACGGGAUGUGCUUUCCGGUCUGAUGAGUCCGUGAGGACGAAACAA [C3G G45A] | 0.371
ACCGGAGGUGCUUUCCGGUCUGAUGAGUGCGUGAGGACGAAACAG [U7G C29G] | 0.488
ACCGGAUGUGCUUCCCGGUCUGAUGAGUCCGUGAGGAAGAAACAG [U14C C38A] | 0.532
ACCGGAUGUGCUUUGCGGUCUGAUGAGUCCGUCAGGACGAAACAG [C15G G33C] | 1.04
ACCGGAUGUGGUUUCCGGUCUGCUGAGUCCGUGAGGACGAAACAG [C11G A23C] | 0.549
ACCGGAUUUGCUUUCCGGUCUGAUGAGUCCGUGAGGGCGAAACAG [G8U A37G] | 0.906
ACCGAAUGUGCUUUCCGGUCUGAUGAGUCCGUGAGGGCGAAACAG [G5A A37G] | 0.773
ACCGGAUGUGCUUUCCGGUCUGAUGAGUCCGUGAGGACGAAUCAG [A42U] | 0.338
ACCGGAUGUGCUUUCCGGUCUGAUCACUCCGUGAGGACGAAACAG [G25C G27C] | 0.278
ACCGGAUGUGCUUUCGGGUCUGAGGAGUCCGUGAGGACGAAACAG [C16G U24G] | 0.611
ACCAGACGUGCUUUCCGGUCUGAUGAGUCCGUGAGGACGAAACAG [G4A U7C] | 0.294
ACCGGAUGUGCUUUCCGGUCUGAUGAGUCCUUCAGGACGAAACAG [G31U G33C] | 1.08
ACCGGAUGUGCUUUCCGGUCGGAUGAGUCCGUGAGGACGCAACAG [U21G A40C] | 0.312
ACCGGAUGUGCGUUCCGGUCUGAUGAGUCCGUGAGGACCAAACAG [U12G G39C] | 0.424
